Reference: publication PMC6212786 (Nucleic Acids Research, 2018)

B1: T4 DNA ligase: Full-length wild-type T4 DNA ligase (residues 1–487) (protein, UniProt P00970 1-487, looked up)
chain: MILKILNEIASIGSTKQKQAILEKNKDNELLKRVYRLTYSRGLQYYIKKWPKPGIATQSFGMLTLTDMLDFIEFTLATRKLTGNAAIEELTGYITDGKKDDVEVLRRVMMRDLECGASVSIANKVWPGLIPEQPQMLASSYDEKGINKNIKFPAFAQLKADGARCFAEVRGDELDDVRLLSRAGNEYLGLDLLKEELIKMTAEARQIHPEGVLIDGELVYHEQVKKEPEGLDFLFDAYPENSKAKEFAEVAESRTASNGIANKSLKGTISEKEAQCMKFQVWDYVPLVEIYSLPAFRLKYDVRFSKLEQMTSGYDKVILIENQVVNNLDEAKVIYKKYIDQGLEGIILKNIDGLWENARSKNLYKFKEVIDVDLKIVGIYPHRKDPTKAGGFILESECGKIKVNAGSGLKDKAGVKSHELDRTRIMENQNYYIGKILECECNGWLKSDGRTDYVKLFLPIAIRLREDKTKANTFEDVFGDFHEVTGL
modifications: full-length
B2: E. coli LigA: E. coli NAD+-dependent DNA ligase (protein, UniProt P15042 1-671, looked up)
DNA ligase: MESIEQQLTELRTTLRHHEYLYHVMDAPEIPDAEYDRLMRELRELETKHPELITPDSPTQRVGAAPLAAFSQIRHEVPMLSLDNVFDEESFLAFNKRVQDRLKNNEKVTWCCELKLDGLAVSILYENGVLVSAATRGDGTTGEDITSNVRTIRAIPLKLHGENIPARLEVRGEVFLPQAGFEKINEDARRTGGKVFANPRNAAAGSLRQLDPRITAKRPLTFFCYGVGVLEGGELPDTHLGRLLQFKKWGLPVSDRVTLCESAEEVLAFYHKVEEDRPTLGFDIDGVVIKVNSLAQQEQLGFVARAPRWAVAFKFPAQEQMTFVRDVEFQVGRTGAITPVARLEPVHVAGVLVSNATLHNADEIERLGLRIGDKVVIRRAGDVIPQVVNVVLSERPEDTREVVFPTHCPVCGSDVERVEGEAVARCTGGLICGAQRKESLKHFVSRRAMDVDGMGDKIIDQLVEKEYVHTPADLFKLTAGKLTGLERMGPKSAQNVVNALEKAKETTFARFLYALGIREVGEATAAGLAAYFGTLEALEAASIEELQKVPDVGIVVASHVHNFFAEESNRNVISELLAEGVHWPAPIVINAEEIDSPFAGKTVVLTGSLSQMSRDDAKARLVELGAKVAGSVSKKTDLVIAGEAAGSKLAKAQELGIEVIDEAEMLRLLGS
B3: gp44/62: T4 clamp-loader prepared by co-expressing gp44 and gp62 (protein, UniProt P04526 1-319; P04527 1-187, looked up)
Sliding-clamp-loader large …: MITVNEKEHILEQKYRPSTIDECILPAFDKETFKSITSKGKIPHIILHSPSPGTGKTTVAKALCHDVNADMMFVNGSDCKIDFVRGPLTNFASAASFDGRQKVIVIDEFDRSGLAESQRHLRSFMEAYSSNCSIIITANNIDGIIKPLQSRCRVITFGQPTDEDKIEMMKQMIRRLTEICKHEGIAIADMKVVAALVKKNFPDFRKTIGELDSYSSKGVLDAGILSLVTNDRGAIDDVLESLKNKDVKQLRALAPKYAADYSWFVGKLAEEIYSRVTPQSIIRMYEIVGENNQYHGIAANTELHLAYLFIQLACEMQWK
Sliding-clamp-loader small …: MSLFKDDIQLNEHQVAWYSKDWTAVQSAADSFKEKAENEFFEIIGAINNKTKCSIAQKDYSKFMVENALSQFPECMPAVYAMNLIGSGLSDEAHFNYLMAAVPRGKRYGKWAKLVEDSTEVLIIKLLAKRYQVNTNDAINYKSILTKNGKLPLVLKELKGLVTDDFLKEVTKNVKEQKQLKKLALEW
B4: T4LΔ(222–247)GS: internally truncated construct with a di-amino acid Gly-Ser substituted for residues 222–247 (protein)
chain: MILKILNEIASIGSTKQKQAILEKNKDNELLKRVYRLTYSRGLQYYIKKWPKPGIATQSFGMLTLTDMLDFIEFTLATRKLTGNAAIEELTGYITDGKKDDVEVLRRVMMRDLECGASVSIANKVWPGLIPEQPQMLASSYDEKGINKNIKFPAFAQLKADGARCFAEVRGDELDDVRLLSRAGNEYLGLDLLKEELIKMTAEARQIHPEGVLIDGELVYHGSAEVAESRTASNGIANKSLKGTISEKEAQCMKFQVWDYVPLVEIYSLPAFRLKYDVRFSKLEQMTSGYDKVILIENQVVNNLDEAKVIYKKYIDQGLEGIILKNIDGLWENARSKNLYKFKEVIDVDLKIVGIYPHRKDPTKAGGFILESECGKIKVNAGSGLKDKAGVKSHELDRTRIMENQNYYIGKILECECNGWLKSDGRTDYVKLFLPIAIRLREDKTKANTFEDVFGDFHEVTGL
modifications: left off: His6 (LEHHHHHH), C-terminal, kept

Key:
[1] = system: nicked substrates containing a single 5′-terminal ribonucleotide adjacent to the nick; conditions: cited from earlier work
[2] = system: DNA substrate; assay: in vitro DNA ligation activity; format: biochemical

| Molecule | ligation activity on nicked substrate with 5′-terminal ribonucleotide [1] | also measured |
| --- | --- | --- |
| B1 | better ligation activity on the same substrate, although a fraction of the adenylated intermediate fail to complete the nick-sealing reaction | – |
| B2 | ligates this substrate as well as it does a regular DNA substrate | – |
| B3 | – | DNA ligase activity of the preparation ([2]; control of gp45 and gp44/62 preparations, data not shown): no detectable DNA ligase activity |
| B4 | – | in vitro DNA ligation activity relative to wild-type ([2]; vs wild-type T4 DNA ligase, Supplementary Figures S8, S10): comparable or slightly better |
